For the data set the following is noted: Escherichia coli (strain K12); pH 7.2; Thermal; DSC; Sodium phosphate 1 mM; reversible: yes; whole UniProt chain shown.

Broadly, the Tm is the temperature at which the thermal transition is half complete.

B1: Tryptophan synthase alpha chain wild type, P0A877 (protein)
chain: MERYESLFAQLKERKEGAFVPFVTLGDPGIEQSLKIIDTLIEAGADALELGIPFSDPLADGPTIQNATLRAFAAGVTPAQCFEMLALIRQKHPTIPIGLLMYANLVFNKGIDEFYAQCEKVGVDSVLVADVPVEESAPFRQAALRHNVAPIFICPPNADDDLLRQIASYGRGYTYLLSRAGVTGAENRAALPLNHLVAKLKEYNAAPPLQGFGISAPDQVKAAIDAGAAGAISGSAIVKIIEQHINEPEKMLAALKVFVQPMKAATRS
Regarding B1, the midpoint of thermal melting (Tm) came out at 59.5 °C.

Values taken from FireProtDB (doi:10.1016/0003-9861(92)90047-z).
